Laboratory results as given in US12679878B2, “CRF2 receptor agonists and their use in therapy” (SANOFI, priority 2020, dated 2026).
Starred links: 1 amine or outer side, 2 acyl side, 3 side chain; linkers in the order of their positions; H or OH if unused. Groups on a side chain read outwards from the residue. No end group written: not given here. *: point of attachment. C18 diacid = O=C(O)CCCCCCCCCCCCCCCCC(=O)*; γGlu = O=C(O)[C@H](CCC(=O)[*:2])N[*:1]; Palmitoyl = CCCCCCCCCCCCCCCC(=O)*; AEEA = NCCOCCOCC(=O)O

Assays:
rat CRF2R α receptor = rat CRF2R α receptor (rat, UniProt P47866 20-411); assay: cell-based or functional assay
[1] = molecular target: T1, anti-target CRF1R receptor (UniProt P34998 24-415, limits assumed); assay: cell-based or functional assay
T1 sequence (looked up): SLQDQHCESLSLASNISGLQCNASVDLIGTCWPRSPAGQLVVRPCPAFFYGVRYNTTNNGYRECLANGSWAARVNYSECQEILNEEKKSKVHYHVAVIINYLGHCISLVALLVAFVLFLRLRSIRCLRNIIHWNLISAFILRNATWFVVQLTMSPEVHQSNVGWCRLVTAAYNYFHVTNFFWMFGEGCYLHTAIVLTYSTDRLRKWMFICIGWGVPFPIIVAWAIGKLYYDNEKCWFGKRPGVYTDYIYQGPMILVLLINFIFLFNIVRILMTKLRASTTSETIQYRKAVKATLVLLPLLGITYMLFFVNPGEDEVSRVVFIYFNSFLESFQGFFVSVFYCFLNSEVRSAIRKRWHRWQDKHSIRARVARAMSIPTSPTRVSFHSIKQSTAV

Chain of rat CRF2R α receptor (P47866 20-411): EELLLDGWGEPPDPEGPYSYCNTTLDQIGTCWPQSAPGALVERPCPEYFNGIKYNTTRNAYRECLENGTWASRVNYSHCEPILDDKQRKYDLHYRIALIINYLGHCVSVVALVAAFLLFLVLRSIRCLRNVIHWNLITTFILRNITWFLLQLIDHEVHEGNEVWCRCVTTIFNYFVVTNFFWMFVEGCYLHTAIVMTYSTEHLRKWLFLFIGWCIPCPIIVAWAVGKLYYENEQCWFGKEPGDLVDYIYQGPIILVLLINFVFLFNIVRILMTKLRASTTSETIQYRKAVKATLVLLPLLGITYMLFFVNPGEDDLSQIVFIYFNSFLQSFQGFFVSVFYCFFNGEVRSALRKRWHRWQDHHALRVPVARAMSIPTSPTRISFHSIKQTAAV

B1: peptide of SEQ ID NO: 13 (peptide)
peptide: FTLSLDVPTKIK([AEEA-AEEA-γGlu-C18 diacid])QILFKQQKQKKERQQAEKNKQLLEQI-NH2
modifications: N-terminus assumed
SMILES: CC[C@H](C)[C@H](NC(=O)[C@H](CCC(N)=O)NC(=O)[C@H](CCC(=O)O)NC(=O)[C@H](CC(C)C)NC(=O)[C@H](CC(C)C)NC(=O)[C@H](CCC(N)=O)NC(=O)[C@H](CCCCN)NC(=O)[C@H](CC(N)=O)NC(=O)[C@H](CCCCN)NC(=O)[C@H](CCC(=O)O)NC(=O)[C@H](C)NC(=O)[C@H](CCC(N)=O)NC(=O)[C@H](CCC(N)=O)NC(=O)[C@H](CCCNC(=N)N)NC(=O)[C@H](CCC(=O)O)NC(=O)[C@H](CCCCN)NC(=O)[C@H](CCCCN)NC(=O)[C@H](CCC(N)=O)NC(=O)[C@H](CCCCN)NC(=O)[C@H](CCC(N)=O)NC(=O)[C@H](CCC(N)=O)NC(=O)[C@H](CCCCN)NC(=O)[C@H](Cc1ccccc1)NC(=O)[C@H](CC(C)C)NC(=O)[C@@H](NC(=O)[C@H](CCC(N)=O)NC(=O)[C@H](CCCCNC(=O)COCCOCCNC(=O)COCCOCCNC(=O)CC[C@H](NC(=O)CCCCCCCCCCCCCCCCC(=O)O)C(=O)O)NC(=O)[C@@H](NC(=O)[C@H](CCCCN)NC(=O)[C@@H](NC(=O)[C@@H]1CCCN1C(=O)[C@@H](NC(=O)[C@H](CC(=O)O)NC(=O)[C@H](CC(C)C)NC(=O)[C@H](CO)NC(=O)[C@H](CC(C)C)NC(=O)[C@@H](NC(=O)[C@@H](N)Cc1ccccc1)[C@@H](C)O)C(C)C)[C@@H](C)O)[C@@H](C)CC)[C@@H](C)CC)C(N)=O
Rat CRF2R α receptor
  EC50 [nM], 0% HSA (cAMP, A7R5 cells): 2.5 nM
[1]
  EC50[nM] 0% HSA (cAMP, CRF1R-overexpression CHO cells): > 1000 nM
  Emax (%) (cAMP, CRF1R-overexpression CHO cells): 4.3%

B2: peptide of SEQ ID NO: 15 (peptide)
peptide: FTLSLDVPTKIK([γGlu-Palmitoyl])QKLFKQAKQKKQRQKAKTNAQILARV-NH2
modifications: N-terminus assumed
SMILES: CCCCCCCCCCCCCCCC(=O)N[C@@H](CCC(=O)NCCCC[C@H](NC(=O)[C@@H](NC(=O)[C@H](CCCCN)NC(=O)[C@@H](NC(=O)[C@@H]1CCCN1C(=O)[C@@H](NC(=O)[C@H](CC(=O)O)NC(=O)[C@H](CC(C)C)NC(=O)[C@H](CO)NC(=O)[C@H](CC(C)C)NC(=O)[C@@H](NC(=O)[C@@H](N)Cc1ccccc1)[C@@H](C)O)C(C)C)[C@@H](C)O)[C@@H](C)CC)C(=O)N[C@@H](CCC(N)=O)C(=O)N[C@@H](CCCCN)C(=O)N[C@@H](CC(C)C)C(=O)N[C@@H](Cc1ccccc1)C(=O)N[C@@H](CCCCN)C(=O)N[C@@H](CCC(N)=O)C(=O)N[C@@H](C)C(=O)N[C@@H](CCCCN)C(=O)N[C@@H](CCC(N)=O)C(=O)N[C@@H](CCCCN)C(=O)N[C@@H](CCCCN)C(=O)N[C@@H](CCC(N)=O)C(=O)N[C@@H](CCCNC(=N)N)C(=O)N[C@@H](CCC(N)=O)C(=O)N[C@@H](CCCCN)C(=O)N[C@@H](C)C(=O)N[C@@H](CCCCN)C(=O)N[C@H](C(=O)N[C@@H](CC(N)=O)C(=O)N[C@@H](C)C(=O)N[C@@H](CCC(N)=O)C(=O)N[C@H](C(=O)N[C@@H](CC(C)C)C(=O)N[C@@H](C)C(=O)N[C@@H](CCCNC(=N)N)C(=O)N[C@H](C(N)=O)C(C)C)[C@@H](C)CC)[C@@H](C)O)C(=O)O
Rat CRF2R α receptor
  EC50 [nM], 0% HSA (cAMP, A7R5 cells): 1.38 nM
[1]
  EC50[nM] 0% HSA (cAMP, CRF1R-overexpression CHO cells): > 1000 nM
  Emax (%) (cAMP, CRF1R-overexpression CHO cells): 7.75%
